# Measurements published in patent US20150344570A1 (published 2015).
# B1: GpH7-B3 variant A330_05P/GpL16-k0 (antibody, human IgG1, kappa)
# heavy: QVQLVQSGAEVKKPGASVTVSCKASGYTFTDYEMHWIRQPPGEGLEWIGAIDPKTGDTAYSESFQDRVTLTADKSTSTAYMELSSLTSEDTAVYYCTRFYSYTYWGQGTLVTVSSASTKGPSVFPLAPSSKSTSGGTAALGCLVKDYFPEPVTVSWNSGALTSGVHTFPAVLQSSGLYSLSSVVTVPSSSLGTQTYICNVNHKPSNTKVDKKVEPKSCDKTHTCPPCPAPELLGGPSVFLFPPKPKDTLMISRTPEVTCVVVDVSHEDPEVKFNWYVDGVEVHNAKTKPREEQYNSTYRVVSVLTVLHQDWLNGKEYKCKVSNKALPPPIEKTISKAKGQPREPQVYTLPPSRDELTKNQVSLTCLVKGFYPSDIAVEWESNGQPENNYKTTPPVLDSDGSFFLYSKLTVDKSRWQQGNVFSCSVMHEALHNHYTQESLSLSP
# light: DIVMTQSPLSLPVTPGEPASISCQASESLVHSNRNTYLHWYLQKPGQSPQLLIYKVSNRFSGVPDRFSGSGSGTDFTLKISRVEAEDVGVYYCSQNTHVPPTFGQGTKVEIERTVAAPSVFIFPPSDEQLKSGTASVVCLLNNFYPREAKVQWKVDNALQSGNSQESVTEQDSKDSTYSLSSTLTLSKADYEKHKVYACEVTHQGLSSPVTKSFNRGEC
# notes: both H chains altered; also called Ho Ab A330_05P
# B2: GpH7-B3 variant A330_07I/GpL16-k0 (antibody, human IgG1, kappa)
# heavy: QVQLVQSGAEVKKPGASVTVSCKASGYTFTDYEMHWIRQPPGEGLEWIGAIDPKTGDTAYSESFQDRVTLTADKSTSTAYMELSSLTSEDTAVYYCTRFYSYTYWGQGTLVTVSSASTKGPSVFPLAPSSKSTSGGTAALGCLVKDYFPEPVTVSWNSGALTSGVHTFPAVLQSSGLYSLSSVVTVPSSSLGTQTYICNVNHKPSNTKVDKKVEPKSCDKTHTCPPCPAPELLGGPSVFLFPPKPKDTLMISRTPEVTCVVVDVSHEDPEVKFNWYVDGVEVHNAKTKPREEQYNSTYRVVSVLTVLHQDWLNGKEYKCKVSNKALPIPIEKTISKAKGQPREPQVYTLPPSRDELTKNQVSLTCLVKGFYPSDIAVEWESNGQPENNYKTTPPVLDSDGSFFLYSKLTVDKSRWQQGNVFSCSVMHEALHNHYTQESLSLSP
# light: B1 light
# notes: both H chains altered; also called Ho Ab A330_07I
# B3: GpH7-A5/GpH7-B3 variant T335_19Q/GpL16-k0 (antibody, human IgG1, kappa)
# heavy 1: not shown
# heavy 2: not shown
# light: B1 light
# notes: heterodimerized IgG1, mutation in one H chain only; also called He Ab
# B4: GpH7-A5/GpH7-B3 variant Y300_08L/GpL16-k0 (antibody, human IgG1, kappa)
# heavy 1: not shown
# heavy 2: not shown
# light: B1 light
# notes: as for B3
# B5: GpH7-A5/GpH7-B3 variant T335_16H/GpL16-k0 (antibody, human IgG1, kappa)
# heavy 1: not shown
# heavy 2: not shown
# light: B1 light
# notes: as for B3
# B6: GpH7-A5/GpH7-B3 variant T335_18N/GpL16-k0 (antibody, human IgG1, kappa)
# heavy 1: not shown
# heavy 2: not shown
# light: B1 light
# notes: as for B3
# B7: GpH7-A5/GpH7-B3 variant T335_06M/GpL16-k0 (antibody, human IgG1, kappa)
# heavy 1: not shown
# heavy 2: not shown
# light: B1 light
# notes: as for B3
# B8: GpH7-A5/GpH7-B3 variant Y300_03V/GpL16-k0 (antibody, human IgG1, kappa)
# heavy 1: not shown
# heavy 2: not shown
# light: B1 light
# notes: as for B3
# B9: GpH7-A5/GpH7-B3 variant Y300_20W/GpL16-k0 (antibody, human IgG1, kappa)
# heavy 1: not shown
# heavy 2: not shown
# light: B1 light
# notes: as for B3
# B10: GpH7-A5/GpH7-B3 variant T335_09D/GpL16-k0 (antibody, human IgG1, kappa)
# heavy 1: not shown
# heavy 2: not shown
# light: B1 light
# notes: as for B3
# B11: GpH7-A5/GpH7-B3 variant T335_10E/GpL16-k0 (antibody, human IgG1, kappa)
# heavy 1: not shown
# heavy 2: not shown
# light: B1 light
# notes: as for B3
# B12: GpH7-A5/GpH7-B3 variant S337_07I/GpL16-k0 (antibody, human IgG1, kappa)
# heavy 1: not shown
# heavy 2: not shown
# light: B1 light
# notes: as for B3
# B13: GpH7-A5/GpH7-B3 variant Y296_20W/GpL16-k0 (antibody, human IgG1, kappa)
# heavy 1: not shown
# heavy 2: not shown
# light: B1 light
# notes: as for B3
# B14: GpH7-A5/GpH7-B3 variant T335_15Y/GpL16-k0 (antibody, human IgG1, kappa)
# heavy 1: not shown
# heavy 2: not shown
# light: B1 light
# notes: as for B3
# B15: GpH7-A5/GpH7-B3 variant Y296_12R/GpL16-k0 (antibody, human IgG1, kappa)
# heavy 1: not shown
# heavy 2: not shown
# light: B1 light
# notes: as for B3
# B16: GpH7-A5/GpH7-B3 variant A330_01G/GpL16-k0 (antibody, human IgG1, kappa)
# heavy 1: not shown
# heavy 2: not shown
# light: B1 light
# notes: as for B3
# B17: GpH7-A5/GpH7-B3 variant Y296_11K/GpL16-k0 (antibody, human IgG1, kappa)
# heavy 1: not shown
# heavy 2: not shown
# light: B1 light
# notes: as for B3
# B18: GpH7-A5/GpH7-B3 variant H268_09D/GpL16-k0 (antibody, human IgG1, kappa)
# heavy 1: not shown
# heavy 2: not shown
# light: B1 light
# notes: as for B3
# B19: GpH7-A5/GpH7-B3 variant H268_10E/GpL16-k0 (antibody, human IgG1, kappa)
# heavy 1: not shown
# heavy 2: not shown
# light: B1 light
# notes: as for B3
# B20: GpH7-A5/GpH7-B3 variant T335_05P/GpL16-k0 (antibody, human IgG1, kappa)
# heavy 1: not shown
# heavy 2: not shown
# light: B1 light
# notes: as for B3
# B21: GpH7-A5/GpH7-B3 variant Y300_06M/GpL16-k0 (antibody, human IgG1, kappa)
# heavy 1: not shown
# heavy 2: not shown
# light: B1 light
# notes: as for B3
# B22: GpH7-A5/GpH7-B3 variant S337_04F/GpL16-k0 (antibody, human IgG1, kappa)
# heavy 1: not shown
# heavy 2: not shown
# light: B1 light
# notes: as for B3
# B23: GpH7-A5/GpH7-B3 variant I336_11K/GpL16-k0 (antibody, human IgG1, kappa)
# heavy 1: not shown
# heavy 2: not shown
# light: B1 light
# notes: as for B3
# B24: GpH7-A5/GpH7-B3 variant S337_08L/GpL16-k0 (antibody, human IgG1, kappa)
# heavy 1: not shown
# heavy 2: not shown
# light: B1 light
# notes: as for B3
# B25: GpH7-A5/GpH7-B3 variant S337_06M/GpL16-k0 (antibody, human IgG1, kappa)
# heavy 1: not shown
# heavy 2: not shown
# light: B1 light
# notes: as for B3
# B26: GpH7-A5/GpH7-B3 variant Y296_16H/GpL16-k0 (antibody, human IgG1, kappa)
# heavy 1: not shown
# heavy 2: not shown
# light: B1 light
# notes: as for B3
# B27: GpH7-A5/GpH7-B3 variant T335_12R/GpL16-k0 (antibody, human IgG1, kappa)
# heavy 1: not shown
# heavy 2: not shown
# light: B1 light
# notes: as for B3
# B28: GpH7-A5/GpH7-B3 variant Y296_06M/GpL16-k0 (antibody, human IgG1, kappa)
# heavy 1: not shown
# heavy 2: not shown
# light: B1 light
# notes: as for B3
# B29: GpH7-A5/GpH7-B3 variant D265_10E/GpL16-k0 (antibody, human IgG1, kappa)
# heavy 1: not shown
# heavy 2: not shown
# light: B1 light
# notes: as for B3
# B30: GpH7-A5/GpH7-B3 variant A330_10E/GpL16-k0 (antibody, human IgG1, kappa)
# heavy 1: not shown
# heavy 2: not shown
# light: B1 light
# notes: as for B3
# B31: GpH7-A5/GpH7-B3 variant H268_01G/GpL16-k0 (antibody, human IgG1, kappa)
# heavy 1: not shown
# heavy 2: not shown
# light: B1 light
# notes: as for B3
# B32: GpH7-A5/GpH7-B3 variant I336_09D/GpL16-k0 (antibody, human IgG1, kappa)
# heavy 1: not shown
# heavy 2: not shown
# light: B1 light
# notes: as for B3
# B33: GpH7-A5/GpH7-B3 variant A330_19Q/GpL16-k0 (antibody, human IgG1, kappa)
# heavy 1: not shown
# heavy 2: not shown
# light: B1 light
# notes: as for B3
# B34: GpH7-A5/GpH7-B3 variant H268_18N/GpL16-k0 (antibody, human IgG1, kappa)
# heavy 1: not shown
# heavy 2: not shown
# light: B1 light
# notes: as for B3
# B35: GpH7-A5/GpH7-B3 variant S337_19Q/GpL16-k0 (antibody, human IgG1, kappa)
# heavy 1: not shown
# heavy 2: not shown
# light: B1 light
# notes: as for B3
# B36: GpH7-A5/GpH7-B3 variant I336_08L/GpL16-k0 (antibody, human IgG1, kappa)
# heavy 1: not shown
# heavy 2: not shown
# light: B1 light
# notes: as for B3
# B37: GpH7-A5/GpH7-B3 variant Y300_14T/GpL16-k0 (antibody, human IgG1, kappa)
# heavy 1: not shown
# heavy 2: not shown
# light: B1 light
# notes: as for B3
# B38: GpH7-A5/GpH7-B3 variant S337_10E/GpL16-k0 (antibody, human IgG1, kappa)
# heavy 1: not shown
# heavy 2: not shown
# light: B1 light
# notes: as for B3
# B39: GpH7-A5/GpH7-B3 variant S337_09D/GpL16-k0 (antibody, human IgG1, kappa)
# heavy 1: not shown
# heavy 2: not shown
# light: B1 light
# notes: as for B3
# B40: GpH7-A5/GpH7-B3 variant T335_07I/GpL16-k0 (antibody, human IgG1, kappa)
# heavy 1: not shown
# heavy 2: not shown
# light: B1 light
# notes: as for B3
# B41: GpH7-A5/GpH7-B3 variant Y300_11K/GpL16-k0 (antibody, human IgG1, kappa)
# heavy 1: not shown
# heavy 2: not shown
# light: B1 light
# notes: as for B3
# B42: GpH7-A5/GpH7-B3 variant A330_04F/GpL16-k0 (antibody, human IgG1, kappa)
# heavy 1: not shown
# heavy 2: not shown
# light: B1 light
# notes: as for B3
# B43: GpH7-A5/GpH7-B3 variant I336_14T/GpL16-k0 (antibody, human IgG1, kappa)
# heavy 1: not shown
# heavy 2: not shown
# light: B1 light
# notes: as for B3
# B44: GpH7-A5/GpH7-B3 variant T335_08L/GpL16-k0 (antibody, human IgG1, kappa)
# heavy 1: not shown
# heavy 2: not shown
# light: B1 light
# notes: as for B3
# B45: GpH7-A5/GpH7-B3 variant Y300_13S/GpL16-k0 (antibody, human IgG1, kappa)
# heavy 1: not shown
# heavy 2: not shown
# light: B1 light
# notes: as for B3
# B46: GpH7-A5/GpH7-B3 variant S337_15Y/GpL16-k0 (antibody, human IgG1, kappa)
# heavy 1: not shown
# heavy 2: not shown
# light: B1 light
# notes: as for B3
# B47: GpH7-A5/GpH7-B3 variant I336_13S/GpL16-k0 (antibody, human IgG1, kappa)
# heavy 1: not shown
# heavy 2: not shown
# light: B1 light
# notes: as for B3
# B48: GpH7-A5/GpH7-B3 variant H268_13S/GpL16-k0 (antibody, human IgG1, kappa)
# heavy 1: not shown
# heavy 2: not shown
# light: B1 light
# notes: as for B3
# B49: GpH7-A5/GpH7-B3 variant A330_20W/GpL16-k0 (antibody, human IgG1, kappa)
# heavy 1: not shown
# heavy 2: not shown
# light: B1 light
# notes: as for B3
# B50: GpH7-A5/GpH7-B3 variant I336_12R/GpL16-k0 (antibody, human IgG1, kappa)
# heavy 1: not shown
# heavy 2: not shown
# light: B1 light
# notes: as for B3
# B51: GpH7-A5/GpH7-B3 variant Y300_19Q/GpL16-k0 (antibody, human IgG1, kappa)
# heavy 1: not shown
# heavy 2: not shown
# light: B1 light
# notes: as for B3
# B52: GpH7-A5/GpH7-B3 variant T335_20W/GpL16-k0 (antibody, human IgG1, kappa)
# heavy 1: not shown
# heavy 2: not shown
# light: B1 light
# notes: as for B3
# B53: GpH7-A5/GpH7-B3 variant Y300_02A/GpL16-k0 (antibody, human IgG1, kappa)
# heavy 1: not shown
# heavy 2: not shown
# light: B1 light
# notes: as for B3
# B54: GpH7-A5/GpH7-B3 variant S337_20W/GpL16-k0 (antibody, human IgG1, kappa)
# heavy 1: not shown
# heavy 2: not shown
# light: B1 light
# notes: as for B3
# B55: GpH7-A5/GpH7-B3 variant T335_11K/GpL16-k0 (antibody, human IgG1, kappa)
# heavy 1: not shown
# heavy 2: not shown
# light: B1 light
# notes: as for B3
# Molecular target: FcγRIIIa extracellular domain with C-terminal His tag (human, UniProt P08637 17-208)
# Sequence (P08637 17-208): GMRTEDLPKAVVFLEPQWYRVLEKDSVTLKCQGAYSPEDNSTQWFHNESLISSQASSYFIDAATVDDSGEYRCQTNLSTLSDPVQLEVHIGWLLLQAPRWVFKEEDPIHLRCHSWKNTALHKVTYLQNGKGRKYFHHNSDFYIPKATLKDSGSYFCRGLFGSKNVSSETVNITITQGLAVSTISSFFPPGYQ
# Test: SPR (Biacore), both H chains altered; HoCon Ab GpH7-B3/GpL16-k0 = 100
row,Binder,Ho/Con_3a
1,B1,56.6%
2,B2,93%

# Molecular target: T1, FcγRIa (human, UniProt P12314 16-292)
# T1 construct: extracellular domain; soluble His-tagged extracellular domain expressed in FreeStyle293 cells, used as analyte in Biacore; also called FcgRI; CD64
# T1 sequence (P12314 16-292): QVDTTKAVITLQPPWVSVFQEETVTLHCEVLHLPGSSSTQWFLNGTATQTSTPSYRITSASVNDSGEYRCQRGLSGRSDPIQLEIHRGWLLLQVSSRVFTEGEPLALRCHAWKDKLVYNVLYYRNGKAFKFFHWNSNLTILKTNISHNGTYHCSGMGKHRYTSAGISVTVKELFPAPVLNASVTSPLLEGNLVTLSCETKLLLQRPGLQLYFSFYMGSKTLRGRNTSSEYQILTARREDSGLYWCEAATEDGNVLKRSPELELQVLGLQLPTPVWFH
# Test: SPR (Biacore), captured antibody, FcγRIa analyte; relative to GpH7-A5/GpH7-B3/GpL16-k0
row,Binder,He/Con_1a
1,B3,"105 relative, control = 100"
2,B4,"113 relative, control = 100"
3,B5,"106 relative, control = 100"
4,B6,"106 relative, control = 100"
5,B7,"107 relative, control = 100"
6,B8,"117 relative, control = 100"
7,B9,"112 relative, control = 100"
8,B10,"108 relative, control = 100"
9,B11,"109 relative, control = 100"
10,B12,"105 relative, control = 100"
11,B13,"111 relative, control = 100"
12,B14,"107 relative, control = 100"
13,B15,"106 relative, control = 100"
14,B16,"106 relative, control = 100"
15,B17,"105 relative, control = 100"
16,B18,"110 relative, control = 100"
17,B19,"111 relative, control = 100"
18,B20,"106 relative, control = 100"
19,B21,"112 relative, control = 100"
20,B22,"106 relative, control = 100"
21,B23,"105 relative, control = 100"
22,B24,"105 relative, control = 100"
23,B25,"107 relative, control = 100"
24,B26,"106 relative, control = 100"
25,B27,"113 relative, control = 100"
26,B28,"104 relative, control = 100"
27,B29,"101 relative, control = 100"

row,Binder,He/Con_1a
1,B30,"107 relative, control = 100"
2,B31,"107 relative, control = 100"
3,B32,"104 relative, control = 100"
4,B33,"105 relative, control = 100"
5,B34,"108 relative, control = 100"
6,B35,"105 relative, control = 100"
7,B36,"107 relative, control = 100"
8,B37,"112 relative, control = 100"
9,B38,"106 relative, control = 100"
10,B39,"106 relative, control = 100"
11,B40,"109 relative, control = 100"
12,B41,"107 relative, control = 100"
13,B42,"106 relative, control = 100"
14,B43,"104 relative, control = 100"
15,B44,"115 relative, control = 100"
16,B45,"111 relative, control = 100"
17,B46,"104 relative, control = 100"
18,B47,"102 relative, control = 100"
19,B48,"109 relative, control = 100"
20,B49,"108 relative, control = 100"
21,B50,"102 relative, control = 100"
22,B51,"112 relative, control = 100"
23,B52,"106 relative, control = 100"
24,B53,"112 relative, control = 100"
25,B54,"105 relative, control = 100"
26,B55,"111 relative, control = 100"
